# Laboratory results reported in US20220184184A1, “GLUCOSE SENSITIVE INSULIN DERIVATIVES” (Novo Nordisk A/S, priority 2019, published 2022).
# B1: compound of Example 272: A14E A22K B25H desB27 desB30 human insulin conjugated with building block of example 29 (ligand)
# chain 1: GIVEQCCTSICSLEQLENYCNK
# chain 2: FVNQHLCGSHLVEALYLVCGERGFHYPK
# modifications: not fully specified; diboron group(s) of example 29, sites only in drawing
# notes: number and sites of diboron groups only in drawing
# B2: compound of Example 271: A14E A22K B25H desB27 desB30 human insulin conjugated with building block of example 22 (ligand)
# chain 1: GIVEQCCTSICSLEQLENYCNK
# chain 2: FVNQHLCGSHLVEALYLVCGERGFHYPK
# modifications: not fully specified; diboron group(s) of example 22, sites only in drawing
# notes: as for B1
# B3: Compound of Example 152 (ligand)
# chain 1: GIVEQCCTSICSLEQLENYCNK
# chain 2: FVNQHLCGSHLVEALYLVCGERGFHYPGK
# modifications: not fully specified; diboron group from building block of example 15; sites only in drawing
# B4: Compound of Example 154 (ligand)
# chain 1: GIVEQCCTSICSLEQLENYCNK
# chain 2: FVNQHLCGSHLVEALYLVCGERGFHYPGK
# modifications: not fully specified; diboron group from building block of example 19; sites only in drawing
# B5: Compound of Example 158 (ligand)
# chain 1: GIVEQCCTSICSLEQLENYCNK
# chain 2: FVNQHLCGSHLVEALYLVCGERGFHYPGK
# modifications: not fully specified; diboron group from building block of example 16; sites only in drawing
# B6: Compound of Example 149 (ligand)
# chain 1: GIVEQCCTSICSLEQLENYCNK
# chain 2: FVNQHLCGSHLVEALYLVCGERGFHYPK
# modifications: not fully specified; diboron group from building block of example 15; sites only in drawing
# B7: Compound of Example 139 (ligand)
# chain 1: GIVEQCCTSICSLEQLENYCNK
# chain 2: FVNQHLCGSHLVEALYLVCGERGFHYPK
# modifications: diboron group from building block of example 9; sites only in drawing
# B8: Compound of Example 150 (ligand)
# chain 1: GIVEQCCTSICSLEQLENYCNK
# chain 2: FVNQHLCGSHLVEALYLVCGERGFHYPK
# modifications: not fully specified; diboron group from building block of example 18; sites only in drawing
# B9: Compound of Example 155 (ligand)
# chain 1: GIVEQCCTSICSLEQLENYCNK
# chain 2: FVNQHLCGSHLVEALYLVCGERGFHYPK
# modifications: not fully specified; diboron group from building block of example 19; sites only in drawing
# B10: Compound of Example 146 (ligand)
# chain 1: GIVEQCCTSICSLEQLENYCNK
# chain 2: FVNQHLCGSHLVEALYLVCGERGFHYPK
# modifications: not fully specified; diboron group from building block of example 16; sites only in drawing
# B11: Compound of Example 166 (ligand)
# chain 1: GIVEQCCTSICSLEQLENYCNK
# chain 2: FVNQHLCGSHLVEALYLVCGERGFHYPK
# modifications: not fully specified; diboron group from building block of example 20; sites only in drawing
# B12: Compound of Example 141 (ligand)
# chain 1: GIVEQCCTSICSLEQLENYCNK
# chain 2: FVNQHLCGSHLVEALYLVCGERGFHYPK
# modifications: diboron group from building block of example 2; sites only in drawing
# B13: Compound of Example 349 (ligand)
# chain 1: GIVEQCCTSICSLEQLENYCNK
# chain 2: FVNQHLCGSHLVEALYLVCGERGFHYPK
# modifications: diboron group of building block of Example 38 on amino group(s); site(s) shown only in the drawing
# B14: Compound of Example 348 (ligand)
# chain 1: GIVEQCCTSICSLEQLENYCNK
# chain 2: FVNQHLCGSHLVEALYLVCGERGFHYPK
# modifications: diboron group of building block of Example 39 on amino group(s); site(s) shown only in the drawing
# B15: Compound of Example 350 (ligand)
# chain 1: GIVEQCCTSICSLEQLENYCNK
# chain 2: FVNQHLCGSHLVEALYLVCGERGFHYPK
# modifications: diboron group of building block of Example 37 on amino group(s); site(s) shown only in the drawing
# B16: Compound of Example 352 (ligand)
# chain 1: GIVEQCCTSICSLEQLENYCNK
# chain 2: FVNQHLCGSHLVEALYLVCGERGFHYPK
# modifications: diboron group of building block of Example 40 on amino group(s); site(s) shown only in the drawing
# Test system: not listed separately
# Assay: Alizarin red (ARS) colorimetric displacement assay, binding of boron compounds to glucose
# Details: statement in words
# Description: The alizarin-red binding assay is a colorimetric assay used to determine the inhibition affinity of boronate/boroxole compounds to glucose. The assay is based on a colour shift of alizarin-red upon binding to boronate, which shift can be followed by change in absorbance in the 330-340 nm region. […] After 5 minutes of centrifugation at 4000 rpm, the plate is placed in a multi-well spectrometer (SpectraMax, Molecular Devices) for absorption detection. […] Upon complete dissolution of the compound, 200 μM of Alizarin red (ARS) is added to the solution. The ARS-boronate solution is then aliquoted into a 96 multiwell plate (black, flat and clear bottom) 1:1 with appropriate carbohydrate. […] The plate with ARS-boronate mixed with carbohydrate is incubated 20 minutes at room temperature. After 5 minutes of centrifugation at 4000 rpm the plate is placed in a multiwell spectrometer (SpectraMax, Molecular Devices) for absorption detection.
row,Molecule,affinity to glucose compared with the diboron compounds
1,"O=C(O)c1cc2c(c(C(F)(F)F)c1)COB2O [Example 42, 1-Hydroxy-4-(trifluoromethyl)-1,3-dihydrobenzo[c][1,2]oxaborole-6-carboxylic acid]",weaker affinity to glucose
2,"O=C(O)c1cc(F)c2c(c1)B(O)OC2 [Example 43, 4-fluoro-1-hydroxy-1,3-dihydrobenzo[c][1,2]oxaborole-6-carboxylic acid]",weaker affinity to glucose

# Molecular target: T1, human Insulin Receptor A (hIR-A) (human, UniProt P06213-2 28-1370)
# T1 construct: Solubilised, semi-purified receptor
# Assay: SPA, relative hIR-A affinity at 20 mM over 0 mM glucose
# Details: not given
# Description: (§1) BHK cells over-expressing human Insulin Receptor A (hIR-A) were lysed in 50 mM Hepes pH 8.0, 150 mM NaCl, 1% Triton X-100, 2 mM EDTA and 10% glycerol. The cleared cell lysate was batch absorbed with wheat germ agglutinin (WGA)-agarose (Lectin from Triticum vulgaris-Agarose, L1394, Sigma-Aldrich Steinheim, Germany) for 90 minutes. The receptors were washed with 20 volumes 50 mM Hepes pH 8.0, 150 mM NaCl and 0.1% Triton X-100, where after the receptors were eluted with 50 mM Hepes pH 8.0, 150 mM NaCl, 0.1% Triton X-100, 0.5 M n-Acetyl Glucosamine and 10% glycerol. All buffers contained Complete (Roche Diagnostic GmbH, Mannheim, Germany) as described in Andersen et al. 2017 PLos One 12.
# (§2) In order to test the glucose sensitivity, the binding experiments were set up in absence or presence of 20 mM glucose. The plates were rocked gently for 22.5 hours at 22° C., centrifuged for 5 minutes at 1000 rpm and counted in TopCounter (Perkin Elmer). Data points were fitted to a four-parameter logistic model, whereby the relative affinity of the analogue compared to human insulin (within the same plate) was determined.
row,Molecule,"HIR glucose factor, 20 mM glucose 1.5% HSA [fold]"
1,B1,12.1
2,B2,7.1

# Molecular target: T2, human Insulin Receptor A (hIR-A) (human, UniProt P06213-2 28-1370)
# T2 construct: Solubilised semi-purified receptor captured on SPA beads by antibody 83-7
# Assay: SPA competition vs 125I-insulin, hIR-A, 1.5% HSA, no glucose
# Details: not given
# Description: as §1, §2
row,Molecule,"HIR affinity relative HI (%), 1.5% HSA [%]"
1,B3,4.9
2,B4,6.1
3,B5,2
4,B6,6.7
5,B7,4
6,B8,13.3
7,B9,5.3
8,B10,3.5
9,B11,2.2
10,B12,8.6

# Molecular target: T2, human Insulin Receptor A (hIR-A)
# Assay: SPA, relative hIR-A affinity at 20 mM vs 0 mM glucose, 1.5% HSA
# Details: not given
# Description: as §1, §2
row,Molecule,"HIR glucose factor, 20 mM glucose 1.5% HSA [fold]"
1,B3,2.9
2,B4,3.7
3,B5,9.9
4,B6,2.8
5,B7,3.2
6,B8,1.3
7,B9,3
8,B10,4.5
9,B11,5.9
10,B12,2.3

# Molecular target: T1, human Insulin Receptor A (hIR-A)
# Assay: SPA, competition with 125I-insulin on solubilised hIR-A, relative to human insulin
# Details: not given
# Description: as §1, §2
row,Molecule,"HIR affinity relative HI (%), 1.5% HSA [%]"
1,B1,0.2

# Molecular target: T3, human Insulin Receptor A (hIR-A) (human, UniProt P06213-2 28-1370)
# T3 construct: Solubilized semi-purified receptor captured on SPA beads through antibody 83-7
# Assay: SPA, displacement of 125I-insulin from solubilised hIR-A, 1.5% HSA, no glucose; affinity relative to human insulin
# Details: not given
# Description: as §1, §2
row,Molecule,"HIR affinity relative HI (%), 1.5% HSA [%]"
1,B13,1
2,B14,0.2
3,B15,0.1

# Molecular target: T3, human Insulin Receptor A (hIR-A)
# Assay: SPA, displacement of 125I-insulin from solubilised hIR-A, 1.5% HSA; increase in relative affinity from 0 to 20 mM glucose
# Details: not given
# Description: as §1, §2
row,Molecule,"HIR glucose factor, 20 mM glucose 1.5% HSA [fold]"
1,B13,4.7
2,B14,7.3
3,B16,5.2
4,B15,18.4
